This series concerns the target T1, RbsR (Serratia sp. ATCC39006) (UniProt A0A2I5T2K0).
T1 sequence: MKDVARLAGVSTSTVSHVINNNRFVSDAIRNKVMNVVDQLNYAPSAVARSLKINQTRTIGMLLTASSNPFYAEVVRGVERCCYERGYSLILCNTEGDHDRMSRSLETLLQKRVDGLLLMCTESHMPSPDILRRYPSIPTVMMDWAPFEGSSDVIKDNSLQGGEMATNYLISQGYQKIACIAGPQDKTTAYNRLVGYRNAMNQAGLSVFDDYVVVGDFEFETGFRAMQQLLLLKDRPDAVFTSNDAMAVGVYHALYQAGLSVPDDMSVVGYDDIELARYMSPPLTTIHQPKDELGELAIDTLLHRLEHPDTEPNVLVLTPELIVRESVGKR
In words: EMSA. As to conditions: complete band shift at 14 nM RbsR (protein:DNA 2.8:1); 10% glycerol, 10 mM Tris pH 8.0, 1 mM DTT, 10 mM KCl, 0.5 mM EDTA, BSA (printed 20 ug m-1), 5 nM probe, 30 min on ice; 7.5% native gel in TGE at 4 C.

Data on one substance can be found in PMC5601083.

As to rbsD upstream probe (LUEGO), the binding was determined as 14 nM.
